Results taken from the supplement of paper PMC12042874.
± gives the uncertainty stated by the source.

Assay: amyloid nucleation score (Sup35N fusion, yeast selection) (log enrichment); library NNK3; higher = more nucleation; inactive = no reads after selection
Procedure, shortened: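 Sup35N was fused to peptides of 20 random codons and expressed in psi-negative yeast, which were induced with 100 μM copper sulfate for 24 hours and then grown on medium lacking adenine and uracil for 7 days at 30°C. Plasmid inserts from input and output were sequenced on Illumina. The nucleation score is the DiMSum log enrichment of output over input reads, centred on the mode score of non-aggregating sequences. Sequences with under 100 input reads were left out, and random libraries had three technical output replicates.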
For LVLSWVITEVMDRVWRGSRG, the amyloid nucleation score was “inactive”.
LVNLTVTYISQYFPFYDSPT gave an amyloid nucleation score of 2.92 ± 0.062.
For LVRIMYL, the amyloid nucleation score was “inactive”.
With LVRKAAVPN the amyloid nucleation score was “inactive”.
For LVRSNGC, the amyloid nucleation score was “inactive”.
With LVSERKAKNSRSGSLAFFRR the amyloid nucleation score was “inactive”.
With LVSLLVWPYLAWCQGCYSVE the amyloid nucleation score was “inactive”.
With LVVLLRFCGRAPGIGQSMGD the amyloid nucleation score was “inactive”.
With LVVRLIDF the amyloid nucleation score was “inactive”.
Substance LVVYYYLCACNYGARRFSWC has an amyloid nucleation score of 1.15 ± 0.13.
In the case of LVYLAF, the amyloid nucleation score is reported as “inactive”.
With LWDDMVIMFGPVICYGMASG the amyloid nucleation score was “inactive”.
With LWIDLWFILYWPGSIDCGEC the amyloid nucleation score was -0.288 ± 0.45.
In the case of LWKMILGTFMTQMCL, the amyloid nucleation score is reported as “inactive”.
For LWLTLGDGIEGVYPRVGVKL, the amyloid nucleation score was “inactive”.
With LWPIGIFKKCYVDRICYYCV the amyloid nucleation score was “inactive”.
In the case of LWRDSGTITDGFECFSME, the amyloid nucleation score is reported as “inactive”.
In the case of LWRGLVIWLMLSGLKCGLHL, the amyloid nucleation score is reported as “inactive”.
LWVRIKARTFNFS gave an amyloid nucleation score of 0.228 ± 0.19.
For LWWISWRRGSQSMVVSG, the amyloid nucleation score was “inactive”.
In the case of LYAYVQVIGDQA, the amyloid nucleation score is reported as “inactive”.
For LYGVNSCLIH, the amyloid nucleation score was “inactive”.
For LYISNFANEINA, the amyloid nucleation score was “inactive”.
With LYIWSIGLLEQLGNGMQASR the amyloid nucleation score was “inactive”.
With LYKGSHWDQAFLSVWYLGVL the amyloid nucleation score was “inactive”.
With LYLLSKRFHNLYLLDKVLKY the amyloid nucleation score was “inactive”.
With LYLVGIMYASTQYTWRQLIN the amyloid nucleation score was “inactive”.
With LYMDYLQNVNLYGMFI the amyloid nucleation score was “inactive”.
For LYNILFWTPNFRFVSWYHCI, the amyloid nucleation score was “inactive”.
With LYNRQVGKDANSFLYNRASQ the amyloid nucleation score was “inactive”.
With LYRSMH the amyloid nucleation score was “inactive”.
For LYSHSGSFSIGSQFNFVWFT, the amyloid nucleation score was 1.44 ± 0.14.
In the case of LYSKCFGVRLHYVFSMSWSG, the amyloid nucleation score is reported as “inactive”.
In the case of MAEWENRLARYSGICGSSLP, the amyloid nucleation score is reported as “inactive”.
With MAFGWWLDSMLYFITDALVP the amyloid nucleation score was “inactive”.
In the case of MAINYTFFPPRLVT, the amyloid nucleation score is reported as “inactive”.
For MAKTMM, the amyloid nucleation score was “inactive”.
For MAKVLHNWFFDRYRFVMFIG, the amyloid nucleation score was “inactive”.
With MCKGR the amyloid nucleation score was “inactive”.
In the case of MCKRGRDCGLLFVSTDDLGD, the amyloid nucleation score is reported as “inactive”.
In the case of MCLYQGESRYGSYLYFTDIN, the amyloid nucleation score is reported as “inactive”.
For MCRMRSW, the amyloid nucleation score was “inactive”.
Substance MCVWVWI has an amyloid nucleation score of 2.06 ± 0.092.
With MDLCMETGQYSLRNTVCAFL the amyloid nucleation score was “inactive”.
With MDLYMTSWEFTVLSLEKMGR the amyloid nucleation score was “inactive”.
For MDSCFRYVTYVTVLGLK, the amyloid nucleation score was “inactive”.
With MDVYLRCSGYILTPKMAWSQ the amyloid nucleation score was “inactive”.
With MECELHTDGRSVACRHT the amyloid nucleation score was “inactive”.
In the case of MELCTLMCHYVVYSVVNWTY, the amyloid nucleation score is reported as “inactive”.
In the case of MEMLVVIRIARRMYDGGCLS, the amyloid nucleation score is reported as -0.423 ± 0.45.
Work on MFCSIIKSQTVAFLVGSSFG yielded an amyloid nucleation score of 0.145 ± 0.26.
In the case of MFDLYN, the amyloid nucleation score is reported as “inactive”.
MFGFRNITK showed an amyloid nucleation score of 0.583 ± 0.2.
With MFLKMRWSNAVRMARKCNLE the amyloid nucleation score was “inactive”.
In the case of MFTGGMFRKVTIQIL, the amyloid nucleation score is reported as “inactive”.
With MGEMRMLVTVT the amyloid nucleation score was “inactive”.
MGFVHINGQCTQLLCCSRLK gave an amyloid nucleation score of 1.94 ± 0.072.
In the case of MGHDHHWSGSDMGS, the amyloid nucleation score is reported as “inactive”.
In the case of MGKVARRA, the amyloid nucleation score is reported as “inactive”.
In the case of MGLIERLWWSTPIKF, the amyloid nucleation score is reported as “inactive”.
With MGMEIEQYNFTALLRD the amyloid nucleation score was “inactive”.
For MGRISVLPYLKFSYAIWY, the amyloid nucleation score was “inactive”.
With MGSGGYNIITDGQSFFSTMA the amyloid nucleation score was “inactive”.
In the case of MGVSWIII, the amyloid nucleation score is reported as “inactive”.
For MHPKSNGTFMFKMAN, the amyloid nucleation score was “inactive”.
With MHSISV the amyloid nucleation score was “inactive”.
